Data: the DeepSol protein solubility set

Test: soluble on expression in E. coli; label from the status in PepcDB or PDB records

Sequence | soluble on expression in E. coli
MGSDKIHHHHHHMKKVTLLVLDGFGVGAMADCEKVKPEDVNANTYKHLREAVDIHIPTLYQLGLGNIVDHLDTARAAYGRCDLAHHGADTFMGHQELMGSKPGVPQKRLMSEVGATIKKNLEKHGYDVRDPVEGAPVLLVNEAVVVGDNLESEVGNIINVVGDFRKLSFEQTIEVGKVVRSSVDTSRVIVYGNKEKTSIDLILSTIKERHPGQWGVDSPKANVYGEGYQVLHLGYGVDYEKQFAHLAEKQRLPVYRIGKTADVIQASGYHNPVVSTRKVLEVYQHEYSKSERDSVFLVNVQETDLAGHKEDCLWYKEVIEEVDRFLASFIDELDEEDLLIITADHGNDPTIGHSNHTREQTPVIIVGPQVRPISIGTRQTMADLAATMADYMGVAPPQYGTSFLHQILR | not soluble
MGSDKIHHHHHHMNLLSLYHFFAGKASDKQKEAIKRWAESSPDNYETLCREKKIFDAGILLVDKKELFQKENAPLLYKLINYTVKIAAVVLLVVVSVTIYKYQELVKKSEVLQTILVPAGQRINIILPDSTFVCLNSNTKFSYPSVFATNNRKVKLDGEAYFEVSANKNKPFYVHTSKGEIKVLGTHFNLEAYSNADVFKTSLFEGKVRVRVKGNNIYLKPDQMVCYHKNGKIHLETIHDYDQFRWREGLICIKSAKLKDIMKTFTKYFGDSIVIQNKEVEHYKYTGKFRQSRGVINALRLLQKDAPFTIEQDEDKQIIYIK | not soluble
GMHHQRKTHVDNNIAAVELAKAYRLLNHGPTVLVSARSQGIDNVMAAAWCCALDFAPPKLTVVLDKMTKTREFIEQSGMFVIQVPTVAQLQLTHRVGSQSLADDANKLLNCGVELFEMAGHDLPFVAGCSAWLACKLIPEPNNQLQYDLFIAEVIGAWADTQVFNHGHWHFDTAPADKRSLHYIAGGQFYAIGESFNAD | soluble
MNKKIVMSFLAATVVTISGCASFADMAGADSATLNASAAQGFSKMTTEARQKGQLDTSSNTYRRINTVMQRMIPYANQMNQTGQPFQWQLAVIKSDTVNAYVAPGGKVVFYTGIVNKLNLSDAEIAAVMGHEMTHALEEHAKSKIGAEALTGLALNIGKAYAGDSIGQAGSAALDLGSQVGVGLPYSRNLESRADYGGLMLMAKAGYNPQAAITLWEKMNRMDGAGGPSFLSTHPSNNQRIQDMRKNLPAAMAVYNNRRLEHHHHHH | not soluble
SNANAEPAVKAESAGKSVAASLKARLEKTYSAQDLKVLSVSETPVKGIYEVVVSGRQIIYTDAEGGYMFVGELINIDTRKNLTEERAADLNKIDFASLPLDKAIKEVRGNGKLKVAVFSDPDCPFCKRLEHEFEK | not soluble
MTLSSKTTKKNTSQHKHPRYVDCDNCSMRAICQPIGADNQAIDLTSNYLTRRVEVSTEQSSSLPLNQSAGVALFEQASPLTAIFAVCSGTFKLCQKNDDGLDRIVGFRFPGELIGEDALFLEVYNYSAVALGDNSVCEVYVDSLSACSQLAPELQQNLIQLLTKQSYEQQRNAHAITGKKSADCLLAAFLLNICQRNAKHSGNETEIELTISRQDIASFLGMRRETLSRLLSKFQHEQLISLNGKQLSLLSLNHLKQLSNQ | not soluble
SNAMSEFIMNNLEQTARRWLEERGVTVEKIAELVYYLQSKYHPDLTMEECIENVNRVISKREVQNAILTGIQLDKLAEDGRLDEPLQSIIRRDEGLYGVDEILALSIVNVYGSIGFTNYGYIDKQKPGILQYLNDKSTGKCNTFLDDIVGAIAAAASSRLAHRAANAE | soluble
MSLSLSLEVLERLVAFETVSDRPNLDMIAYVEDFLRTRGFRVHRIADPEEAKAGLFAEIGPSVDGGLLLSAHSDVVPVEGQSWCVPPFKLTRQGDKLYGRGTTDMKGFLAEMLALADVVHRRDLHAPLKLLISYDEEIGCVGISRMKDRLRPLLGRPELAIVGEPTEMQVAISHKGKRSYRADFRGEAGHSALAPRFVNALHLAVDFVTKLRQMQDEFRQDGNFNGDYDVPYTTLHVGQLHGGEALNLVPDKATLLFEFRHLAEDDPEVIEARIQQAADAVKGNYADVAHISLDALAGYPGLSVAVSEPLVSRVRSWCDGNISHVAFGTEAGVLSELGIQTVVCGPGSMAEQGHKPDEFISEHQLAACSNMLRKGAEEMLYCAEGHHHHHH | soluble
MSYYHHHHHHLESTSLYKKAGLQALLLEQQDGKTLASVQTLDESRLPEGDVTVDVHWSSLNYKDALAITGKGKIIRNFPMIPGIDFAGTVRTSEDPRFHAGQEVLLTGWGVGENHWGGLAEQARVKGDWLVAMPQGLDARKAMIIGTAGFTAMLCVMALEDAGVRPQDGEIVVTGASGGVGSTAVALLHKLGYQVVAVSGRESTHEYLKSLGASRVLPRDEFAESRPLEKQVWAGAIDTVGDKVLAKVLAQMNYGGCVAACGLAGGFTLPTTVMPFILRNVRLQGVDSVMTPPERRAQAWQRLVADLPESFYTQAAKEISLSEAPNFAEAIINNQIQGRTLVKVN | soluble
MDRVDCIVIGAGVVGLAVARKLAQAGREVIVLEEAEAIGTITSSRNSEVIHAGIYYRAGSWMARMCVNGKHALYRYCGERGIPHKNCGKLIVATNAKETEKLQSIKAHAEANGVLDMQLLTGEAARALEPALACDAALLSPSTGIIDSHAYMLSLRGEAEEAGAAFAFHTPLIRAKAAAGMIEVEAGGEAPMALQCSLLVNAAGLAATTVARNIDGMPLDRIPPAYLAKGNYFSCNAKAPFSHLIYPVPEPGGLGVHLTLDMAGQARFGPDVEWIETINYEVDPSRAERFYPAIRRYWPTLPDGALMPSYSGIRPKIVPPAVATQDFLMQGPRDHGVAGLINLFGIESPGLTSSLAIADHVAELANILEHHHHHH | not soluble
MGSDKIHHHHHHMQEIFAVLPETIRQLLKKLPPSIQKDVEEIRIRVHRPLEVIVNHLPHYPEHQGCEYVVTTKDAQFLLNQLSAYSIYAFEEELKRGFITMAGGHRVGLAGKVTLEKGYVKTVRDISSFNIRVAKQKIGTAEPLISHVYQKGWLNTLLIGPPQSGKTTLLRDLARLVSVGWSRKGIPPLKVGIVDERSEIAAAVKGVPQHELGMRVDVLDGCPKAEGMMMMIRSMSPDVLIVDEIGRKEDCVAIQEALHAGVKVMTTAHGYELEEVSKRPAIRELLEIEAFDRCIELERRAKPGVVRRIRNAKAKDVGYVS | not soluble
MGTPKPRILPWLVSQLDLGQLEGVAWVNKSRTRFRIPWKHGLRQDAQQEDFGIFQAWAEATGAYVPGRDKPDLPTWKRNFRSALNRKEGLRLAEDRSKDPHDPHKIYEFVNSGVGDFSQPDTS | soluble
MGSDKIHHHHHHMTVHDRIVAEPFSLQRRNPAGGTKPLTSWGFANETDVLTDVLLGSPNFLRHLSTSSLSRKHLREAPCNVQIAQAQHKDLVAAYEHFGVNIHWHEPTPELPMQVYSRDSSVMTPYGAIITAMANWWRRGENYAAIRTYEKLGIPIYDMVTAGTFEGGDFNVIEDGVVLIGCGGARTQEEGARQVQAWFEKEGWETRIAFIDEYYVHIDLMVVPIAEKLTAVCLACTEPGIVDWLKGKGHEIIDVPFQDTMALGCNFMSLGKDRVIAPTSSQTLIGQLKARGFEVAAVDMSEISKTGGGIHCMAQALKREAA | not soluble
MGSDKIHHHHHHMEFLIYSLPEEVLREEMLGNFSVALKLIDDFLKKDLPLLQRERLIYEKERIERLLEDYPFTEKEAMEKMREMFEGFSEGEFQYLMNEGVLDYIVVEGEKRFERRFFHNLAFVRSEYRERLRKDERSEKARRILHERLERLIKGEDPKRYRIRARITLKLKETSSKHRVWLPFPKESLQIESVKLLRTSHKSYYISPNDVPQRTIYFEGEDSTFFVEFEYIVREWVNHVDPERVSEKVAGFEEFLKEEPPHIVFTPKLRWLTQTVVGSEVNPYLKAKRIYDWITLNVRYSYVKPYALYENITDFVVNNLKGDCGFQALLFITMCRIAGVPARWQSGWYINPIFGSPHDWALFYVEPYGWLPADLSFGGARRDNESFRSFYFGNLDGFRMVANDGFMKDFDPKTRFVRSDPTDNQVGEAESEEKRLPFESTIEVISFEEV | not soluble
MMLSKVLRNSPLLFRVAQPKDHERIIKFLDKHFAKEEPCSRALKISPEISRGVFTATVTRCLTTPFSTVVLQENGDLAACLLASVWNRTDPLENADFDDTGLPENFKLFIQFLNKAHLNFWKIAPPNVNSIIHREIGSVAPQFTRLGIATKMVTTNMTKRNLKKYNIGGVLSETTSLANQIVLEKAGFKCLKELPYSTIVDSKGNQVLKLDDGTTSLCLNFKPIEEYENLPE | not soluble
MRRVQSNTLDVGIDVHLKNWSTAILSKHSVLRRFLQVDCEGPTLISYIVAKHLAHASRGTISPYRTNGSAYGGFAIYMYLLIKMR | not soluble
